B1: Azoarcus group I ribozyme (parent)
chain: GUGCCUUGCGCCGGGAAACCACGCAAGGGAUGGUGUCAAAUUCGGCGAAACCUAAGCGCCCGCCCGGGCGUAUGGCAACGCCGAGCCAAGCUUCGGCGCCUGCGCCGAUGAAGGUGUAGAGACUAGACGGCACCCACCUAAGGCAAACGCUAUGGUGAAGGCAUAGUCCAGGGAGUGGCGAAAGUCACACAAACCGG

Variants of: B1
Test: reverse-splicing fitness (ratio to wild type); higher = more active; in vitro selection; Mg2+ level not given
Method in brief: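 An in vitro group I ribozyme library with randomized positions was T7-transcribed and gel-purified. In triplicate, 10 pmol RNA in EPPS pH 7.5 was reacted with 50 pmoles of a 30-nt RNA substrate for 1 h at 37 °C across several added MgCl2 levels (1–48 mM), then stopped with EDTA. Products were reverse transcribed from a substrate-complementary primer, PCR-amplified and sequenced (HiSeq 4000). Fitness is a variant's read proportion after selection over that before, normalised to wild type.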
Variant C82U A111G A120C C150A C169U U176A has a reverse-splicing fitness of 0.017. With C82U A111G A120C C150A C169U U176G the reverse-splicing fitness was 0.00561. C82U A111G A120C C150A C169U U176C showed a reverse-splicing fitness of 0.0177. With C82U A111G A120G A145G U176C the reverse-splicing fitness was 0.0192. In the case of C82U A111G A120G A145G U176A, the reverse-splicing fitness is reported as 0.0123. Work on C82U A111G A120G A145G U176G yielded a reverse-splicing fitness of 0.00429. C82U A111G A120G A145G C150U C169A U176A showed a reverse-splicing fitness of 0.0143. Work on C82U A111G A120G A145G C150U C169A U176G yielded a reverse-splicing fitness of 0.00562. In the case of C82U A111G A120G A145G C150U C169A U176C, the reverse-splicing fitness is reported as 0.0148. Work on C82U A111G A120G A145U C150G C169G yielded a reverse-splicing fitness of 0.00704. C82U A111G A120G A145U C150G C169A showed a reverse-splicing fitness of 0.00861. With C82U A111G A120G A145U C150G C169U the reverse-splicing fitness was 0.00832. C82U A111G A120C A145U C150G U176G showed a reverse-splicing fitness of 0.00286. Variant C82U A111G A120C A145U C150G U176C has a reverse-splicing fitness of 0.00882. C82U A111G A120C A145U C150G U176A gave a reverse-splicing fitness of 0.00455. In the case of C82U A111G A120G A145U C150G U176G, the reverse-splicing fitness is reported as 0.00321. C82U A111G A120G A145U C150G U176C gave a reverse-splicing fitness of 0.00779. With C82U A111G A120G A145U C150G U176A the reverse-splicing fitness was 0.00535. In the case of C82U A111G A120C A145U C150G C169A U176C, the reverse-splicing fitness is reported as 0.00798. C82U A111G A120C A145U C150G C169A U176A gave a reverse-splicing fitness of 0.00839. With C82U A111G A120C A145U C150G C169A U176G the reverse-splicing fitness was 0.00477. In the case of C82U A111G A120C A145U C150G C169U U176C, the reverse-splicing fitness is reported as 0.0124. Work on C82U A111G A120C A145U C150G C169U U176G yielded a reverse-splicing fitness of 0.00471. Work on C82U A111G A120C A145U C150G C169U U176A yielded a reverse-splicing fitness of 0.00625. Work on C82U A111G A120C C150U U176C yielded a reverse-splicing fitness of 0.0218. Work on C82U A111G A120C C150U U176G yielded a reverse-splicing fitness of 0.00651. C82U A111G A120C C150U U176A showed a reverse-splicing fitness of 0.0148. C82U A111G A120G A145C C150G C169U U176C showed a reverse-splicing fitness of 0.0102. C82U A111G A120G A145C C150G C169U U176G showed a reverse-splicing fitness of 0.00462. Work on C82U A111G A120G A145C C150G C169U U176A yielded a reverse-splicing fitness of 0.0136. C82U A111G A120G A145C C150A C169G U176G gave a reverse-splicing fitness of 0.00465. Work on C82U A111G A120G A145C C150A C169G U176C yielded a reverse-splicing fitness of 0.015. C82U A111G A120G A145C C150A C169G U176A showed a reverse-splicing fitness of 0.023. C82U A111G A120G A145C C169U gave a reverse-splicing fitness of 0.00954. With C82U A111G A120G A145C C169A the reverse-splicing fitness was 0.00792. For C82U A111G A120G A145C C169G, the reverse-splicing fitness was 0.0123. Variant C82U A111G A120G A145G C169U U176G has a reverse-splicing fitness of 0.00414. For C82U A111G A120G A145G C169U U176A, the reverse-splicing fitness was 0.0209. Variant C82U A111G A120G A145G C169U U176C has a reverse-splicing fitness of 0.0164. Work on C82U A111G A120G A145C C169G U176A yielded a reverse-splicing fitness of 0.0238. With C82U A111G A120G A145C C169G U176G the reverse-splicing fitness was 0.0039. For C82U A111G A120G A145C C169G U176C, the reverse-splicing fitness was 0.0158. Work on C82U A111G A120G A145G C150G yielded a reverse-splicing fitness of 0.00721. With C82U A111G A120G A145G C150A the reverse-splicing fitness was 0.00878. Variant C82U A111G A120G A145G C150U has a reverse-splicing fitness of 0.0132. C82U A111G A120G A145U C150G C169A U176G gave a reverse-splicing fitness of 0.00391. Variant C82U A111G A120G A145U C150G C169A U176C has a reverse-splicing fitness of 0.00917. For C82U A111G A120G A145U C150G C169A U176A, the reverse-splicing fitness was 0.00905. For C82U A111G A120C C169G U176C, the reverse-splicing fitness was 0.0156. With C82U A111G A120C C169G U176G the reverse-splicing fitness was 0.00426. C82U A111G A120C C169G U176A showed a reverse-splicing fitness of 0.0168. In the case of C82U A111G A120G A145G C169G U176G, the reverse-splicing fitness is reported as 0.00424. C82U A111G A120G A145G C169G U176A showed a reverse-splicing fitness of 0.0211. C82U A111G A120G A145G C169G U176C gave a reverse-splicing fitness of 0.0289. In the case of C82U A111G A120C A145U C150U C169A, the reverse-splicing fitness is reported as 0.00793. C82U A111G A120C A145U C150U C169G showed a reverse-splicing fitness of 0.008. Work on C82U A111G A120C A145U C150U C169U yielded a reverse-splicing fitness of 0.00989. In the case of C82U A111G A120G A145G C150U C169A, the reverse-splicing fitness is reported as 0.0108. Variant C82U A111G A120G A145G C150U C169G has a reverse-splicing fitness of 0.0111. C82U A111G A120G A145G C150U C169U showed a reverse-splicing fitness of 0.0114. Work on C82U A111G A120G A145U C150U U176G yielded a reverse-splicing fitness of 0.00411. In the case of C82U A111G A120G A145U C150U U176C, the reverse-splicing fitness is reported as 0.0124. C82U A111G A120G A145U C150U U176A showed a reverse-splicing fitness of 0.00942. Work on C82U A111G A120C A145U C150U C169U U176G yielded a reverse-splicing fitness of 0.00402. For C82U A111G A120C A145U C150U C169U U176C, the reverse-splicing fitness was 0.0124. Work on C82U A111G A120C A145U C150U C169U U176A yielded a reverse-splicing fitness of 0.0157. For C82U A111G A120G A145G C150A C169G, the reverse-splicing fitness was 0.009. Work on C82U A111G A120G A145G C150A C169U yielded a reverse-splicing fitness of 0.00914. C82U A111G A120G A145G C150A C169A showed a reverse-splicing fitness of 0.00945. Work on C82U A111G A120C C150A U176G yielded a reverse-splicing fitness of 0.00554. Variant C82U A111G A120C C150A U176A has a reverse-splicing fitness of 0.0127. C82U A111G A120C C150A U176C showed a reverse-splicing fitness of 0.0187. For C82U A111G A120G C150A C169A U176G, the reverse-splicing fitness was 0.00577. Variant C82U A111G A120G C150A C169A U176A has a reverse-splicing fitness of 0.0173. With C82U A111G A120G C150A C169A U176C the reverse-splicing fitness was 0.0192. With C82U A111G A120G A145U C150G C169U U176G the reverse-splicing fitness was 0.0048. In the case of C82U A111G A120G A145U C150G C169U U176C, the reverse-splicing fitness is reported as 0.0117. For C82U A111G A120G A145U C150G C169U U176A, the reverse-splicing fitness was 0.0129. In the case of C82U A111G A120G A145G C169A U176A, the reverse-splicing fitness is reported as 0.0215. Variant C82U A111G A120G A145G C169A U176C has a reverse-splicing fitness of 0.0277. C82U A111G A120G A145G C169A U176G gave a reverse-splicing fitness of 0.00377. With C82U A111G A120C C150U C169U U176C the reverse-splicing fitness was 0.0151. With C82U A111G A120C C150U C169U U176G the reverse-splicing fitness was 0.0054. For C82U A111G A120C C150U C169U U176A, the reverse-splicing fitness was 0.0154.
